According to publication PMC9641999, “Cryo-EM samples of gas-phase purified protein assemblies using native electrospray ion-beam deposition” (Faraday discussions, 2022):

B1: alcohol dehydrogenase (enzyme)
chain: MSIPETQKGVIFYESHGKLEYKDIPVPKPKANELLINVKYSGVCHTDLHAWHGDWPLPVKLPLVGGHEGAGVVVGMGENVKGWKIGDYAGIKWLNGSCMACEYCELGNESNCPHADLSGYTHDGSFQQYATADAVQAAHIPQGTDLAQVAPILCAGITVYKALKSANLMAGHWVAISGAAGGLGSLAVQYAKAMGYRVLGIDGGEGKEELFRSIGGEVFIDFTKEKDIVGAVLKATDGGAHGVINVSVSEAAIEASTRYVRANGTTVLVGMPAGAKCCSDVFNQVVKSISIVGSYVGNRADTREALDFFARGLVKSPIKVVGLSTLPEIYEKMEKGQIVGRYVVDTSK
notes: alcohol dehydrogenase (ADH), Sigma Aldrich A7011-15KU; native tetramer selected by mass; also called ADH; source: bought: Sigma Aldrich (A7011-15KU), used without further purification; desalted into 200 mM ammonium acetate
B2: apoferritin (natural protein, UniProt P02791 1-175, looked up)
chain: MSSQIRQNYSTEVEAAVNRLVNLYLRASYTYLSLGFYFDRDDVALEGVCHFFRELAEEKREGAERLLKMQNQRGGRALFQDLQKPSQDEWGTTLDAMKAAIVLEKSLNQALLDLHALGSAQADPHLCDFLESHFLDEEVKLIKKMGDHLTNIQRLVGSQAGLGEYLFERLTLKHD
notes: ferritin, Sigma Aldrich F4503-25MG; The sample held both apo- and holoferritin, and the 24-mer of apoferritin was selected by mass; PDB 7A6A, used for comparison of shapes, may be a recombinant ferritin of another species or chain; also called apo/holo-ferritin; source: bought: Sigma Aldrich (F4503-25MG), saline stock solution, used without further purification; desalted into 200 mM ammonium …

Target: the molecule itself
Assay: native MS; non-activating native electrospray on a Q Exactive UHMR; 200 mM ammonium acetate pH 6.9; 5 μM ADH, 10 μM β-gal, 8 μM ferritin, 5 μM GroEL (concentrations of the most abundant oligomers)

| Protein | stoichiometry N |
| --- | --- |
| B1 | 4 |
| B2 | 24 |
